Measured values published in PMC10512945.

Target: N-terminally GST-tagged human GBF1 (containing the Y828A mutation that confers BFA resistance) (human)
Test: negative staining electron microscopy; purified GST-GBF1 on glow-discharged carbon grids, washed with 20 mM Bis-Tris pH 7.0, 50 mM NaCl, 1 mM DTT, stained with 1% uranyl formate; 2D class averages from 81,522 particles, compared with AlphaFold-predicted monomers

“N-terminally GST-tagged human GBF1 (containing the Y828A mutation that confers BFA resistance) (natural protein)” was tested, and the stoichiometry N was 2.
